Experimental data taken from publication PMC3514461 (ACS chemical biology, 2012).

Biological target: the molecule itself
Assay: crystal structure

B1: hASRGL1-Thr168Ala (human asparaginase-like protein 1, processing-inactive, precursor-like variant) (enzyme, UniProt Q7L266 1-308, looked up)
chain: MNPIVVVHGGGAGPISKDRKERVHQGMVRAATVGYGILREGGSAVDAVEGAVVALEDDPEFNAGCGSVLNTNGEVEMDASIMDGKDLSAGAVSAVQCIANPIKLARLVMEKTPHCFLTDQGAAQFAAAMGVPEIPGEKLVTERNKKRLEKEKHEKGAQKTDCQKNLGAVGAVALDCKGNVAYATSTGGIVNKMVGRVGDSPCLGAGGYADNDIGAVSTTGHGESILKVNLARLTLFHIEQGKTVEEAADLSLGYMKSRVKGLGGLIVVSKTGDWVAKWTSTSMPWAAAKDGKLHFGIDPDDTTITDLP
binding result: binds
